This note sets out measurements from article PMC5753752.

Experiment [1] concerns the target GLP-1R-T378SphK (UniProt P43220).
The target in experiment [2] is wild-type GLP-1R (UniProt P43220).
For experiment [3], the target named is Cy3-labeled GLP-1R-T378SphK (UniProt P43220).

As for GLP-1 peptide, the figures for the GLP-1-induced cAMP accumulation in transfected HEK293T cells, pEC50 in experiment [1], in experiment [2] and in experiment [3] were 10.3, 10.7 and 10.4, respectively.
